Source: the RNAGym collection of RNA variant scans (doi:10.7554/elife.80360)

B1: HDV Ribozyme (parent)
chain: GGCCGGCAUGGUCCCAGCCUCCUCGCUGGCGCCGGCUGGGCAACAUUCCGAGGGGACCGUCCCCUCGGUAAUGGCGAAUGGGACCCA

Variants of: B1
Assay: self-cleavage, relative activity (ratio to wild type); higher = more cleavage; co-transcriptional

Variant	self-cleavage
GGCCGGCAUGGUCCCAGCCUCCUCGCUGGCGCCGGCUGGGCACCAUUCCGAGGGGACCGUCCCCUCGGUAAUGGUGAAUGGGACCCA [A43C C75U]	0.172
GGCCGGCAUGGUCCCAGCCUCCUCGCUGGCGCCGGCUGGGCACCAUUCCGAGGGGACCGUCCCCUCGGUAAUGGGGAAUGGGACCCA [A43C C75G]	0.314
GGCCGGCAUGGUCCCAGCCUCCUCGCUGGCGCCGGCUGGGCACCAUUCCGAGGGGACCGUCCCCUCGGUAAUGGAGAAUGGGACCCA [A43C C75A]	0.298
GGCCGGCAUGGUCCCAGCCUCCUCGCUGGCGCCGGCUGGGCACCAUUCCGAGGGUACCGUCCCCUCGGUAAUGGCGAAUGGGACCCA [A43C G55U]	0.748
GGCCGGCAUGGUCCCAGCCUCCUCGCUGGCGCCGGCUGGGCACCAUUCCGAGGGGACCGUCCCCUCAGUAAUGGCGAAUGGGACCCA [A43C G67A]	0.322
GGCCGGCAUGGUCCCAGCCUCCUCGCUGGCGCCGGCUGGGCACCAUUCCGAGGGGACCGUCCCCUCGGUAAUGGCGAAUGGGAUCCA [A43C C84U]	0.135
GGCCGGCAUGGUCCCAGCCUCCUCGCUGGCGCCGGCUGGGCACCAUCCCGAGGGGACCGUCCCCUCGGUAAUGGCGAAUGGGACCCA [A43C U47C]	0.208
GGCCGGCAUGGUCCCAGCCUCCUCGCUGGCGCCGGCUGGGCACCAUGCCGAGGGGACCGUCCCCUCGGUAAUGGCGAAUGGGACCCA [A43C U47G]	0.302
GGCCGGCAUGGUCCCAGCCUCCUCGCUGGCGCCGGCUGGGCACCAUUCCGAGGGGACCGUCCCCUCGGUAAUGGCGAAUGGGACCGA [A43C C86G]	0.399
GGCCGGCAUGGUCCCAGCCUCCUCGCUGGCGCCGGCUGGGCACCAUUCCGAGGGGACCGUCCCCUCGGUAAUGGCGAAUGGGACCAA [A43C C86A]	0.443
GGCCGGCAUGGUCCCAGCCUCCUCGCUGGCGCCGGCUGGGCACCAUUCCGAGGGGACCGUCCCCUCGGUAAUGGCGAAUAGGACCCA [A43C G80A]	0.124
GGCCGGCAUGGUCCCAGCCUCCUCGCUGGCGCCGGCUGGGCACCAUUCCGAGGGGACCGUCCCCUCGGUAAUGGCGAAUGGUACCCA [A43C G82U]	0.0545
GGCCGGCAUGGUCCCAGCCUCCUCGCUGGCGCCGGCUGGGCACCAUUCCGAGGGGACCGUCCCCUCGGUAAUGGCGAAUGGAACCCA [A43C G82A]	0.185
GGCCGGCAUGGUCCCAGCCUCCUCGCUGGCGCCGGCUGGGCACCAUUCCGAGGGGACCGUCCCCUCGGUAAUGGCGAAUGCGACCCA [A43C G81C]	0.0773
GGCCGGCAUGGUCCCAGCCUCCUCGCUGGCGCCGGCUGGGCACCAUUCCGAGGGGACCGUCCCCUCGGUAAUGGCGAAUGUGACCCA [A43C G81U]	0
GGCCGGCAUGGUCCCAGCCUCCUCGCUGGCGCCGGCUGGGCACCAUUCCGAGGGGACCGUCCCCUCGGUAAUGACGAAUGGGACCCA [A43C G74A]	0.509

Variant	self-cleavage
GGCCGGCAUGGUCCCAGCCUCCUCGCUGGCGCCGGCUGGGCACCAUUCCGAGGGGACCGUCCCCUCGGUAAUGCCGAAUGGGACCCA [A43C G74C]	0.0811
GGCCGGCAUGGUCCCAGCCUCCUCGCUGGCGCCGGCUGGGCACCAUUCCGAGGGGACCGUCCCCUCGGUAAUGUCGAAUGGGACCCA [A43C G74U]	0.415
GGCCGGCAUGGUCCCAGCCUCCUCGCUGGCGCCGGCUGGGCACCAUUCCGAGGGGACCGUCGCCUCGGUAAUGGCGAAUGGGACCCA [A43C C62G]	0.322
GGCCGGCAUGGUCCCAGCCUCCUCGCUGGCGCCGGCUGGGCACCAUUCCGAGGGGACCGUCACCUCGGUAAUGGCGAAUGGGACCCA [A43C C62A]	0.415
GGCCGGCAUGGUCCCAGCCUCCUCGCUGGCGCCGGCUGGGCACCAUUCCGAGGGGACCGUCUCCUCGGUAAUGGCGAAUGGGACCCA [A43C C62U]	0.508
GGCCGGCAUGGUCCCAGCCUCCUCGCUGGCGCCGGCUGGGCACCAUUCCGAGGGGACCUUCCCCUCGGUAAUGGCGAAUGGGACCCA [A43C G59U]	0.639
GGCCGGCAUGGUCCCAGCCUCCUCGCUGGCGCCGGCUGGGCACCAUUCCGAGGGGACCCUCCCCUCGGUAAUGGCGAAUGGGACCCA [A43C G59C]	0.322
GGCCGGCAUGGUCCCAGCCUCCUCGCUGGCGCCGGCUGGGCACCAUUCCGAGGGGGCCGUCCCCUCGGUAAUGGCGAAUGGGACCCA [A43C A56G]	0.404
GGCCGGCAUGGUCCCAGCCUCCUCGCUGGCGCCGGCUGGGCACCAUUCCGAGGGGACCGUCCCCUCGGUAAUGGCGAGUGGGACCCA [A43C A78G]	0.0978
GGCCGGCAUGGUCCCAGCCUCCUCGCUGGCGCCGGCUGGGCACCAUUCCGAGGGGACCGUCCCCUCGGUAAUGGCGACUGGGACCCA [A43C A78C]	0.0723
GGCCGGCAUGGUCCCAGCCUCCUCGCUGGCGCCGGCUGGGCACCAUUCCGAGGGGACCGUCCCUUCGGUAAUGGCGAAUGGGACCCA [A43C C64U]	0.391
GGCCGGCAUGGUCCCAGCCUCCUCGCUGGCGCCGGCUGGGCACCAUUCCGAGGGGACCGUCCCAUCGGUAAUGGCGAAUGGGACCCA [A43C C64A]	0.38
GGCCGGCAUGGUCCCAGCCUCCUCGCUGGCGCCGGCUGGGCACCAUUCCGAGGGGACCGUCCCCUCGGUAAUGGCGAAUGGGACACA [A43C C85A]	0.361
GGCCGGCAUGGUCCCAGCCUCCUCGCUGGCGCCGGCUGGGCACCAUUCCGAGGGGACCGUCCCCUCGGUAAUGGCGAAUGGGACUCA [A43C C85U]	0.475
GGCCGGCAUGGUCCCAGCCUCCUCGCUGGCGCCGGCUGGGCACCAUUCCGAGGGGACCGUCCCCUCGGUAAUGGCGAAUGGGACGCA [A43C C85G]	0.519
GGCCGGCAUGGUCCCAGCCUCCUCGCUGGCGCCGGCUGGGCAGCAUUCCGAGGGGACCGUCCCCUCGGUAAUGGCGAAUGGGACCCA [A43G]	0.618
